Measured values reported in US11242370B2, “Neuregulin-4 compounds and methods of use” (Eli Lilly and Company, priority 2019, dated 2022).
Like-named read-outs stand apart in the source and are kept apart here. One block for each molecule: values may come before it. Bridges are numbered along the chain shown (N, C = ends). Where no end group is shown, it is not given here.

Legend:
[1] = Day 4 (96 hours), steady state
Description: (§2) On Day 4, blood samples are collected to determine plasma concentration and the infusion pump is removed.

[2] = Plasma pharmacokinetics in monkeys (toxicology studies); settings: cynomolgus monkey, in vivo, sc
Protocol: (§1) Example 11 is administered in a single 3 mg/kg dose to male and female monkeys by SC bolus injection.

in vivo [3] = settings: rat, plasma, sc
Description: as §2

[4] = Plasma pharmacokinetics in rats (toxicology studies); settings: rats
Protocol: as §1

in vivo [5] = settings: rat, plasma, sc, 2.18 mg/kg/day
Description: At the end of designated infusion phase, blood samples are collected to determine plasma concentration and the infusion pump is removed.

human HER2 and HER4 = biological target: T1, human HER2 and HER4 (Homo sapiens, UniProt Q15303); assay: Screening by human HER2-HER4 mediated ERK 1/2 phosphorylation in CHO-hHER2-hHER4 (clone 1H6) cells; assay type: cell-based; settings: Table 5; Fc variants as 293F supernatants; Examples average of two replicates ± standard deviation
T1 construct: expressed in transfected cells
Protocol: A cell based assay utilizing CHO-K1 cells overexpressing human or rat HER receptors is used to determine activity of NRG4 compounds. CHO-K1 cells (ATCC) are grown in DMEM-F12 3:1 with 5% FBS with 20 mM HEPES, 40 μg/mL L-Proline, lx antibiotics and were split 1:5 every 2-3 days with TripLE Express (Gibco). Cells are transfected with plasmid DNA encoding HER receptors in pairs (hHER2-3, hHER2-4, rHER2-3 and rHER2-4) with Fugene 6 (Promega) according to the manufacturer's instructions. […] Transfected cells are selected with Puromycin (12 ug/ml) and Hygromycin (1 mg/ml) for 3-4 weeks and clonal lines are obtained by limited dilution cloning into 96 well plates. Clonal lines are selected by appropriate gene expression of HER2, HER3 or HER4 by Taqman method. Lines with appropriate receptor expression are confirmed by NRG1 induced phospho-ERK 1/2 responses. Clones are grown up, harvested, aliquoted into cryovials and then frozen under liquid nitrogen for long-term storage.
A phospho-ERK1/2 activity assay is used to determine potencies of NRG4 compounds. The potency of Examples 1-8 and 10 as compared to WT human NRG1 and/or human NRG4 are analyzed in studies measuring stimulation of human HER2-HER4 mediated ERK 1/2 phosphorylation. This assay comprises a CHO-K1 stable line expressing human HER2 and HER4. CHO-hHER2-hHER4 (clone 1H6) cells are routinely cultured in DMEM: F12(3:1), 5% FBS, 40 μg/mL L-Proline, 10 μg/mL puromycin and 1 mg/mL hygromycin at 37° C., 5% CO2. Cells are washed twice with 1×PBS, dissociated with 0.05% trypsin/[…] EDTA and collected by centrifugation at 300×g for 10 m. Cells are re-suspended in maintenance media. 20,000 cells/well, in 30 μL, are seeded into 384 well Poly-D-Lysine cell culture plates (Greiner, Cat No. 781946). Plates are covered with a manufacturer's lid and moved to a 37° C. tissue culture incubator at 5% CO^2, 80%+ humidity and allowed to adhere. After 24 h, media are removed from the plates and replaced with 30 μL serum-free starvation media (Low glucose DMEM with 0.1% BSA) using a Biomek FX liquid handler. Plates are returned to the incubator for 24 h.
hFcNRG4 variants, transiently expressed as 293F supernatants, are prepared in starvation media in a clear 384W plate (Greiner, cat no. 781185) as a 4pt 1:8 serial dilution (dose range averaged between 250 pM to 140000 pM). Media are removed from the cell culture plates and the 30 uL/well prepared variants are stamped into the plates using a Biomek FX liquid handler. Plates are sealed with a foil seal and stimulated for 15 minutes at room temperature on an orbital shaker. Cells are then washed once with 50 uL cold PBS. 30 uL lysis buffer is added to the cells and oscillated for 10 m at RT on an orbital shaker.
Detection of phosphorylation of ERR 1/2 is performed with either an AlphaScreen SureFire phospho-ERK1/2 kit (T202/Y204) (Perkin Elmer, catalog no. TGRES) or an AlphaLISA® SureFire® Ultra™ p ERK1/2 assay kit together with the AlphaScreen Protein. A IgG Detection Kit (Protein-A) (PerkinElmer, catalogue no. 6760617). After lysis of the CHO-K1 cells. 4 μL lysate is transferred to a 384W Alpha Proxiplate (Perkin Elmer, cat no, 6008280) with a 384W Biomek FX. 4 uL positive and negative lysates (Perkin Elmer, TGRES-L) are added to available wells as controls. 5 uL/well acceptor mix (containing anti-phoso-Thr202/Tyr204 antibodies and Protein A conjugated acceptor beads) is added to the plate with a Forumlatrix Mantis. The plate is sealed, spun down for 1 min at 300×g and incubated for 2 hr at room temperature on an orbital shaker. 2 μL/well donor mix (containing strepavidin coated donor beads and biotinylated antibodies to a distal ERK1/2 epitope) is dispensed by Mantis. The plate is sealed, spun down for 1 min at 300×g and incubated for 2 hr at room temperature on an orbital shaker before reading on the Perkin Elmer Envision 2103 Multilabel Reader (HIS Alpha mode, excitation time: 40 ms, total measurement time: 130 ms). […]

[6] = biological target: T2, HER4 receptor extracellular domain (ECD) (Homo sapiens, UniProt Q15303); assay: HER4/NRG-Fc binding assay (ELISA) for screening NRG4 variants
T2 construct: C-terminal His-tagged HER4 receptor extracellular domain (ECD) construct
T2 sequence (Q15303 26-651 limits assumed): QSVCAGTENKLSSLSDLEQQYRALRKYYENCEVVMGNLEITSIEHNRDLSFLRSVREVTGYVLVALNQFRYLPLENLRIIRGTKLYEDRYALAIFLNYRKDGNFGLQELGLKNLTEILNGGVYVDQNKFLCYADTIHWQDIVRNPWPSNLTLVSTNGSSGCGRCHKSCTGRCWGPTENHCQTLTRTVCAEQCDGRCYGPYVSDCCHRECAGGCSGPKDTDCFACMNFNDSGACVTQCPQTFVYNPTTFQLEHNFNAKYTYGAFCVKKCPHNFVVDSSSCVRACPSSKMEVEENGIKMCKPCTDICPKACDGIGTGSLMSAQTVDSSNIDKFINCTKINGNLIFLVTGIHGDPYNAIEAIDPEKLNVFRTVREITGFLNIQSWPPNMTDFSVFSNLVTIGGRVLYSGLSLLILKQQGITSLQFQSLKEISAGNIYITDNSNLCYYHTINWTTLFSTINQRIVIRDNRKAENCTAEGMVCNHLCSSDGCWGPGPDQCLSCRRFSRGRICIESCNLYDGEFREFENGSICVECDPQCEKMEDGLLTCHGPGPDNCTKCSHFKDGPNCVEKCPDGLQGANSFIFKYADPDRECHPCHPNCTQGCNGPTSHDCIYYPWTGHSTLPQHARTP
Protocol: A binding assay is utilized to perform high-throughput screening of NRG4 variant Fc fusion proteins to HER4 receptor, to identify affinity-driven variants with the potential to increase receptor activation and signaling. ELISA plates are coated with an anti-His tag antibody at 2 μg/ml in PBS to facilitate the standardized capture of a C-terminal His-tagged HER4 receptor extracellular domain (ECD) construct after blocking the plate with 1% BSA/PBS/0.1% Tween 20 (HER4 ECD at 5 μg/ml). Saturating amounts of unpurified NRG4-Fc variants in expression media (Starting at 10 μg/ml with serial dilutions in 1% BSA/PBS/0.1% Tween 20) are incubated with the captured receptor for 1 hour. After washing, bound variant NRG4-Fc is detected colorimetrically with an anti-human Fc-specific alkaline phosphatase secondary detection reagent to quantitate binding. Incubation times of variant binding to receptor or durations of the subsequent wash steps are varied to further identify binding variants driven by affinity on-rate and off-rate, respectively.

Molecule: H-GGGGSGHEEPCGPSHKSFCLNGGLCYQIPTIPSPFCRCVENYTGARCEKVFL (disulfide 11-25, 19-36, 38-47 (inferred)) [Example 9]
Exposure in rat plasma, Mean ([1]; 2.18 mg/kg/day SC infusion): 29.62 nM
Exposure in rat plasma, Mean ([1]; 7.28 mg/kg/day SC infusion): 72.24 nM
half-life [2]: < 5 h
level at time molar at 96 h (in vivo [3]; 0.22 mg/kg/day): 0.00259 µM
level at time molar at 96 h (in vivo [3]; 0.73 mg/kg/day): 0.00994 µM
half-life after SC administration [4]: less than an hour
level at time molar at 48 h (in vivo [5]): 0.0401 µM
level at time molar at 72 h (in vivo [5]): 0.0473 µM
level at time molar at 96 h (in vivo [5]): 0.0314 µM

EC50 (human HER2 and HER4): 0.77 ± 0.16 nM
O.D. 405, binding to HER4 extracellular domain ([6]; Dose # 1: Example 1 10.65, WT NRG1 10, WT NRG4 17 μg/mL): 1.485
O.D. 405, binding to HER4 extracellular domain ([6]; Dose # 2: Example 1 5.325, WT NRG1 5, WT NRG4 8.5 μg/mL): 1.438
O.D. 405, binding to HER4 extracellular domain ([6]; Dose # 3: Example 1 2.6625, WT NRG1 2.5, WT NRG4 4.25 μg/mL): 1.4
O.D. 405, binding to HER4 extracellular domain ([6]; Dose # 4: Example 1 1.33125, WT NRG1 1.25, WT NRG4 2.125 μg/mL): 1.332
O.D. 405, binding to HER4 extracellular domain ([6]; Dose # 5: Example 1 0.665625, WT NRG1 0.625, WT NRG4 1.0625 μg/mL): 1.217
O.D. 405, binding to HER4 extracellular domain ([6]; Dose # 6: Example 1 0.332813, WT NRG1 0.3125, WT NRG4 0.53125 μg/mL): 1.081
O.D. 405, binding to HER4 extracellular domain ([6]; Dose # 7: Example 1 0.166406, WT NRG1 0.15625, WT NRG4 0.265625 μg/mL): 0.865
O.D. 405, binding to HER4 extracellular domain ([6]; Dose # 8: Example 1 0.083203, WT NRG1 0.078125, WT NRG4 0.132813 μg/mL): 0.607
O.D. 405, binding to HER4 extracellular domain ([6]; Dose # 9: Example 1 0.041602, WT NRG1 0.039063, WT NRG4 0.066406 μg/mL): 0.404
O.D. 405, binding to HER4 extracellular domain ([6]; Dose # 10: Example 1 0.020801, WT NRG1 0.019531, WT NRG4 0.033203 μg/mL): 0.235
O.D. 405, binding to HER4 extracellular domain ([6]; Dose # 11: Example 1 0.0104, WT NRG1 0.009766, WT NRG4 0.016602 μg/mL): 0.136
O.D. 405, binding to HER4 extracellular domain ([6]; Dose # 12: Example 1 0.0052, WT NRG1 0.004883, WT NRG4 0.008301 μg/mL): 0.096
B1: Example 1: NRG4 D1G, (GGGGS)3 linker, SEQ ID NO: 10, fused to IgG Fc dimer SEQ ID NO: 6 and 7 (protein)
chain 1: GGGGSGGGGSGGGGSGHEEPCGPSHKSFCLNGGLCYVIPTIPSPFCRCVENYTGARCEEVFL
chain 2: ECPPCPAPPVAGPSVFLFPPKPKDTLMISRTPEVTCVVVDVSHEDPEVQFNWYVDGVEVHNAKTKPREEQFNSTFRVVSVLTVVHQDWLNGKEYKCKVSNKGLPAPIEKTISKTKGQPREPQVYTLPPSREEMTKNQVSLWCLVKGFYPSDIAVEWESNGQPENNYKTTPPVLDSDGSFFLYSKLTVDKSRWQQGNVFSCSVMHEALHNHYTQKSLSLSPG
chain 3: ECPPCPAPPVAGPSVFLFPPKPKDTLMISRTPEVTCVVVDVSHEDPEVQFNWYVDGVEVHNAKTKPREEQFNSTFRVVSVLTVVHQDWLNGKEYKCKVSNKGLPAPIEKTISKTKGQPREPQVYTLPPSREEMTKNQVSLSCAVKGFYPSDIAVEWESNGQPENNYKTTPPVLDSDGSFFLVSKLTVDKSRWQQGNVFSCSVMHEALHNHYTQKSLSLSPG
